Among the data in patent US9394371 (Scripps Research, dated 2016) are Kd values, retold here.

Assay [1] addresses T1, AIP-3 (S. aureus III native cyclic signaling peptide) (Staphylococcus aureus).
T1 construct: also called AIP3 wt; AIP-III
In words: competition ELISA on AP1-BSA.

Assay [2] addresses AIP-1 (S. aureus I native cyclic signaling peptide) (Staphylococcus aureus). In words: competition ELISA on AP1-BSA.

B1: AP1-15B4 (antibody, V domains shown)
VH: EVHLVESGGDLVKPGGSLKLSCAASGFAFSDFAMSWVRQTPEKRLEWVAIIKSDDSYTYYPDSVRDRFTISRDNARNTLYLQMTSLRSEDTALYYCTKIYDAYFYAMDYWGQGTSVTVSS
VL: DIVRTQSPLSLSVSLGDQASISCRSSQSLLHSNGNTYLHWYLQKPGQSPKLLIYKVSNRFSGVPDRFSGSGSGTDFTLKISILEAEDLGIYFCSQSTHFPTFGGGTKLEIK
notes: also called mAb AP1-15B4; AP1 Sups 15B4
In turn, B1 registered a Kd in assay [1] of approximately 1 µM.

B2: 3B1 (antibody, V domains shown)
VH: QVQLQESGPGLVKPSETLSLTCTVSGGSISSYYWSWIRQPPGKGLEWIGYIYYSGNTNSNPSLKSRVTISVDTSKNQFSLKLSSVTAADTAVYYCARTYYDSSGYYYRAFDIWGQGTMVTVSS
VL: DIQMTQSPSSLSASEGDRVTITCRASQGIRNDLGWYQQKPGKAPKRLIYAASSLQSGVPLRFSGSGSGTEFTLTISSLQPEDFATYYCLQYNSYPWTFGQGTKVEIKR
As for B2, in assay [2], the Kd is approximately 6 µM.
